From patent publication US20120058906A1 (published 2012)

Legend:
[1] = target: T1, rHuman IGF-1 sR (IGF-1 sR), CF (R&D Systems Cat#391-GR) (human, UniProt P08069 31-932); test: MSD ECL multi-spot plate, antigen immobilized; Fab 1.6 nM; blank spot 449
T1 construct: Purchased soluble receptor; also called insulin-like growth factor-1 soluble receptor; IGF-R1

[2] = target: T2, rHuman P-Cadherin/Fc Chimera, CF (R&D Systems Cat#861-PC) (human, UniProt P22223 108-654); test: as above
T2 construct: Purchased Fc chimera; not shown: Fc portion of the purchased chimera

[3] = target: T3, rHuman Erythropoietin R/Fc Chimera, CF (R&D Systems Cat#963-ER) (human, UniProt P19235 25-250); test: as above
T3 construct: Purchased Fc chimera; also called EPO R/Fc; Epo R; not shown: Fc portion of the purchased chimera
T3 sequence: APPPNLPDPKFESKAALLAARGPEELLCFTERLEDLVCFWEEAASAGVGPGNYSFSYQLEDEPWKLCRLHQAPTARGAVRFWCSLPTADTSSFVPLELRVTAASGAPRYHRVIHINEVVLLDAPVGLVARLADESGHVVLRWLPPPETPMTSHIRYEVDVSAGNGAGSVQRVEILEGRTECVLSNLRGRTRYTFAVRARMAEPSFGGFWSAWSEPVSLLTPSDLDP

[4] = target: T4, Recombinant Human DLL4 (R&D Systems Cat#1506-D4/CF) (human, UniProt Q9NR61 27-524); test: as above
T4 construct: Purchased recombinant protein; also called delta-like protein 4

[5] = target: T5, rHuman ErbB2/Fc Chimera, CF (R&D Systems Cat#1129-ER) (human, UniProt P04626 23-652); test: as above
T5 construct: Purchased Fc chimera; also called HER2/neu; not shown: Fc portion of the purchased chimera

[6] = target: T6, rHuman EGF R/Fc Chimera, CF (R&D Systems Cat#344-ER) (human, UniProt P00533 25-645); test: as above
T6 construct: Purchased Fc chimera; not shown: Fc portion of the purchased chimera

[7] = target: T7, rHuman HGF R/c-MET/Fc Chimera, CF (R&D Systems Cat#358-MT/CF) (human, UniProt P08581 25-932); test: as above
T7 construct: Purchased Fc chimera; also called HGF R/Fc; not shown: Fc portion of the purchased chimera

[8] = target: T8, rHuman Notch-1/Fc Chimera, CF (R&D Systems Cat#3647-TK) (human, UniProt P46531 19-526); test: as above
T8 construct: Purchased Fc chimera; not shown: Fc portion of the purchased chimera

[9] = target: T9, rHuman CD44/Fc Chimera, CF (R&D Systems Cat#3660-CD) (human, UniProt P16070 21-220); test: as above
T9 construct: Purchased Fc chimera; not shown: Fc portion of the purchased chimera

[10] = target: T10, rHuman Erythropoietin R/Fc Chimera, CF (R&D Systems Cat#963-ER) (human, UniProt P19235 25-250); test: ECL (MSD Multi-Spot) binding assay, antigen spotted on plate; Fab 51 nM; blank spot 335
T10 construct: Bought Fc chimera; also called EPO R/Fc; Epo R; Fc part of the bought chimera not given
T10 sequence: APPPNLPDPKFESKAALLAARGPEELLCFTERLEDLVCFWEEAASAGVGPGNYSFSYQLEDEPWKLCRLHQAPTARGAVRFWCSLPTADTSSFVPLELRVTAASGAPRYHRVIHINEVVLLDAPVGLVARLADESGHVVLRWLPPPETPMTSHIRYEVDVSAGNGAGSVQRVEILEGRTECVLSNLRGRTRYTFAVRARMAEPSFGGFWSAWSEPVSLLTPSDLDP

[11] = target: T11, Recombinant Human DLL4 (R&D Systems Cat#1506-D4/CF) (human, UniProt Q9NR61 27-524); test: as above
T11 construct: Bought recombinant protein; also called delta-like protein 4; rHuman DLL4

[12] = target: T12, rHuman ErbB2/Fc Chimera, CF (R&D Systems Cat#1129-ER) (human, UniProt P04626 23-652); test: as above
T12 construct: Bought Fc chimera; also called HER2/neu; human epidermal growth factor 2 receptor; Fc part of the bought chimera not given

[13] = target: T13, rHuman EGF R/Fc Chimera, CF (R&D Systems Cat#344-ER) (human, UniProt P00533 25-645); test: as above
T13 construct: Bought Fc chimera; also called epidermal growth factor receptor; Fc part of the bought chimera not given

[14] = target: T14, rHuman Notch-1/Fc Chimera, CF (R&D Systems Cat#3647-TK) (human, UniProt P46531 19-526); test: as above
T14 construct: Bought Fc chimera; Fc part of the bought chimera not given

[15] = target: T15, rHuman CD44/Fc Chimera, CF (R&D Systems Cat#3660-CD) (human, UniProt P16070 21-220); test: as above
T15 construct: Bought Fc chimera; Fc part of the bought chimera not given

[16] = target: T16, rHuman IGF-1 sR (IGF-1 sR), CF (R&D Systems Cat#391-GR) (human, UniProt P08069 31-932); test: as above
T16 construct: Bought soluble receptor; also called insulin-like growth factor-1 soluble receptor; IGF-R1

[17] = target: T17, rHuman ErbB2/Fc Chimera, CF (R&D Systems Cat#1129-ER) (human, UniProt P04626 23-652); test: MSD ECL multi-spot plate; Fab 8.1 nM; blank spot 435
T17 construct: also called HER2/neu; human epidermal growth factor 2 receptor; Fc part of the bought chimera not given

[18] = target: T18, rHuman CD44/Fc Chimera, CF (R&D Systems Cat#3660-CD) (human, UniProt P16070 21-220); test: as above
T18 construct: Fc part of the bought chimera not given
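Note: blank spot per well as comparator with Hit at signal to blank ratio of 4 or more.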

B1: Fab VH5-51_IGHD5-18*01>3_IGHJ4*01_G100R & V3-4_IGLJ1*01 (Fab, V domains shown)
VH: EVQLVQSGAEVKKPGESLKISCKGSGYSFTSYWIGWVRQMPGKGLEWMGIIYPGDSDTRYSPSFQGQVTISADKSISTAYLQWSSLKASDTAMYYCARRRYSYGYDYFDYWGQGTLVTVSS
VL: QTVVTQEPSFSVSPGGTVTLTCGLSSGSVSTSYYPSWYQQTPGQAPRTLIYSTNTRSSGVPDRFSGSILGNKAALTITGAQADDESDYYCVLYMGSGISYVFGTGTKVTVL
notes: It was expressed as a Fab: CH1 with tags from Plasmid A and lambda CL from Plasmid E; also called Fab No. 23
B1 was tested, and the ECL signal [1] was 1330 ECL signal, the ECL signal [2] was 666 ECL signal and the ECL signal [3] was 920 ECL signal. The ECL signal [4] was 1540 ECL signal, the ECL signal [5] was 1440 ECL signal and the ECL signal [6] was 1200 ECL signal. The ECL signal [7] was 1210 ECL signal, the ECL signal [8] was 1050 ECL signal and the ECL signal [9] was 997 ECL signal.

B2: Fab VH5-51_IGHD5-18*01>3_IGHJ4*01 & V3-4_IGLJ1*01 (Fab, V domains shown)
VH: EVQLVQSGAEVKKPGESLKISCKGSGYSFTSYWIGWVRQMPGKGLEWMGIIYPGDSDTRYSPSFQGQVTISADKSISTAYLQWSSLKASDTAMYYCARRGYSYGYDYFDYWGQGTLVTVSS
VL: QTVVTQEPSFSVSPGGTVTLTCGLSSGSVSTSYYPSWYQQTPGQAPRTLIYSTNTRSSGVPDRFSGSILGNKAALTITGAQADDESDYYCVLYMGSGISYVFGTGTKVTVL
notes: Tested as a Fab made in E. coli; also called IGHV5-51*03
For B2, the ECL signal [10] was 750, the ECL signal [11] was 17000 and the ECL signal [12] was 1250. It also gave an ECL signal [13] of 816, an ECL signal [14] of 685 and an ECL signal [15] of 651. For the same binder, the ECL signal [16] was 1050.

B3: Fab VH1-8_IGHD2-2*01_IGHJ6*01 & L12_IGKJ1*01 (Fab, V domains shown)
VH: QVQLVQSGAEVKKPGASVKVSCKASGYTFTSYDINWVRQATGQGLEWMGWMNPNSGNTGYAQKFQGRVTMTRNTSISTAYMELSSLRSEDTAVYYCARGGYCSSTSCYADYYYYYGMDVWGQGTTVTVSS
VL: not shown
In the case of B3, the ECL signal [17] is reported as 557 ECL signal and the ECL signal [18] is reported as 528 ECL signal.
